Measurements as given in patent US20240034783A1 (SOTIO BIOTECH A S, published 2024).

Tests used:
human CLDN18.2 [1] = molecular target: T1, human CLDN18.2 (human); test: flow cytometry; % positive tumor cells divided by % positive healthy stomach cells
T1 construct: also called huCLDN18.2; hCLDN18.2
Protocol: (§1) Two Balb/c mice were implanted subcutaneously with 1×10⁶ A549 cells expressing CLDN18.2 in 100 μl of 50% Matrigel and tumors growth was monitored over a few weeks until the tumor reached the desired size between 150-450 mm 3. Healthy stomach tissue and tumor tissue was collected for FC analysis. The collected tissues were cut into small pieces and digested with the Miltenyi tumor dissociation kit (MACS Miltenyi Biotec, Germany). Tissue pieces were incubated with dissociation buffer (prepared according to the manufacturer instruction) in 6 well plates for 30 min in 37° C. under permanent gentle rocking motion. Samples were resuspended and strained through a 70 μm cell strainer (Corning, USA) followed by a wash with 20 ml FC buffer (PBS+2% FBS). Cell suspensions were centrifuged (5 min at 400 g for 4° C.) and the supernatants were discarded. If needed, cell suspensions were passed through a strainer and centrifuged repeatedly and pellets resuspended in 5 ml of red blood cell lysis buffer (Biolegend, USA), incubated on ice for 4 min. After incubation, 25 ml of PBS was added, and the suspensions were centrifuged again (5 min at 400 g for 4° C.). Pellets were resuspended in FC buffer (0.5-3 ml based on pellets). Equal number of cells were transferred into 96 well plates and further processed for FC analysis. The cells in the plates were washed with PBS and centrifuged (400 g for 2 min at 4° C.). […] After incubation, cells were washed twice in PBS and centrifuged (400 g for 2 min at 4° C.). Pellets were resuspended in 50 μl/well of secondary staining mix (PBS+PE-labelled anti-human antibody) (Thermo Fisher Scientific, USA), and incubated 25 min on ice. After incubation cells were washed again twice in PBS. Pellets were resuspended in 100 μl of PBS containing DAPI. Plates were kept on ice until FC analysis. For FC analysis, live cells were separated from dead cells by forward scatter and DAPI stain. Live cells were then gated for the presence of cytokeratin ([…]) and bound CLDN18.2 antibodies (PE positive cells).

human CLDN18.2 [2] = molecular target: T1, human CLDN18.2; test: flow cytometry, live cells from mouse tumor of A549 cells expressing CLDN18.2, antibody 4 µg/ml
Protocol: as §1

human CLDN18.2 [3] = molecular target: T1, human CLDN18.2; test: flow cytometry titration, PA-TU-8988S-High cells
Protocol: (§2) In order to have a more homogenous cell population, the cells were sorted by FACS to select only cells with a the higher CLDN18.2 expression. […] After wash in FACS buffer, the cells were incubated with the PE-labeled Fey specific IgG goat anti-human secondary antibody (eBioscience) on ice for 30 min. After wash, the stained cells were resuspended in FACS buffer, analyzed and sorted by a FACSAria™ instrument, separating medium expressing cells from high expressing cells (FIG. 2B). […] HEK293T cells overexpressing CLDN18.2 or CLDN18.1 were generated as described in Example 3 and the expression of CLDN18.2 was analyzed by flow cytometry (FIG. 3).
(§3) A PE-coupled secondary anti-human IgG antibody was added to the cells for additional 30 min at 4° C. after washes with the FC buffer, followed by further washes with FC buffer. The cells were then resuspended in 100 μl FC buffer and measured with a FACSCalibur™ cell analyzer (BD Biosciences, USA).

human CLDN18.2 [4] = molecular target: T1, human CLDN18.2; test: flow cytometry titration, HEK293T cells overexpressing CLDN18.2
Protocol: as §2, §3

Binder | Ratio tumor/stomach (Average) (human CLDN18.2 [1]) | Ratio tumor/stomach (Mouse 1) (human CLDN18.2 [1]) | Ratio tumor/stomach (Mouse 2) (human CLDN18.2 [1]) | % of positive tumor cells (Average) (human CLDN18.2 [2]) | % of positive tumor cells (Mouse 1) (human CLDN18.2 [2]) | % of positive tumor cells (Mouse 2) (human CLDN18.2 [2]) | EC50 (human CLDN18.2 [3]) | Max MFI (human CLDN18.2 [3]) | EC50 (human CLDN18.2 [4]) | Max MFI (human CLDN18.2 [4])
hCl1a (antibody, human IgG1, kappa, V domains shown, Humanized) VH: QVQLVQSGAEVKKPGASVKVSCKASGYTFTDYAMHWVRQAPGQRLEWMGWINTYTGKPTYAQKFQGRVTITRDTSASTAYMELSSLRSEDTAVYYCARAVFYGYTMDAWGQGTLVTVSS VL: DIQMTQSPSSLSASVGDRVTITCRASEDIYSNLAWYQQKPGKAPKLLIFSVKRLQDGVPSRFSGSGSGTDFTLTISSLQPEDFATYYCLQGSNFPLTFGQGTKVEIKR | 34.7 | 28.3 | 60 | 26% | 34% | 18% | 2.43 µg/mL | 1650 MFI | 0.598 µg/mL | 1880 MFI
hCl1i (antibody, human IgG1, kappa, V domains shown, Humanized) VH: QVQLVQSGAEVKKPGASVKVSCKASGYTFTDYAMYWVRQAPGQRLEWMGWINAYTGKPTYAQKFQGRVTITRDTSASTAYMELSSLRSEDTAVYYCARAVYYGYTMDAWGQGTLVTVSS VL: DIQMTQSPSSLSASVGDRVTITCRASEDIYSNLAWYQQKPGKAPKLLIFSVKRLQDGVPSRFSGSGSGTDFTLTISSLQPEDFATYYCLQGSNFPLTFGQGTKVEIKR |  |  |  |  |  |  | 1.23 µg/mL | 2090 MFI | 0.444 µg/mL | 2180 MFI
hCl1h (antibody, human IgG1, kappa, V domains shown, Humanized) VH: QVQLVQSGAEVKKPGASVKVSCKASGYTFTDYAMYWVRQAPGQRLEWMGWINAYTGKPTYAQKFQGRVTITRDTSASTAYMELSSLRSEDTAVYYCARAVYYGYTMDAWGQGTLVTVSS VL: DIQMTQSPSSLSASVGDRVTITCRASEDIYSNLAWYQQKPGKAPKLLIYSVKRLQDGVPSRFSGSGSGTDFTLTISSLQPEDFATYYCLQGSNFPLTFGQGTKVEIKR |  |  |  |  |  |  | 1.75 µg/mL | 1950 MFI | 0.432 µg/mL | 2080 MFI
hCl1b (antibody, human IgG1, kappa, V domains shown, Humanized) VH: QVQLVQSGAEVKKPGASVKVSCKASGYTFTDYAMHWVRQAPGQRLEWMGWINTYTGKPTYSQKFQGRVTITRDTSASTAYMELSSLRSEDTAVYYCARAVFYGYTMDAWGQGTLVTVSS VL: DIQMTQSPSSLSASVGDRVTITCRASEDIYSNLAWYQQKPGKAPKLLIFSVKRLQDGVPSRFSGSGSGTDFTLTISSLQPEDFATYYCLQGSNFPLTFGQGTKVEIKR | 53.1 | 43 | 131 | 30% | 43% | 17% | 1.98 µg/mL | 1720 MFI | 0.572 µg/mL | 1860 MFI
hCl1c (antibody, human IgG1, kappa, V domains shown, Humanized) VH: QVQLVQSGAEVKKPGASVKVSCKASGYTFTDYAMHWVRQAPGQRLEWMGWINTYTGKPTYSQKFQGRVTITRDTSASTAYMELSSLRSEDTAVYYCARAVFYGYTMDAWGQGTLVTVSS VL: DIQMTQSPSSLSASVGDRVTITCRTSEDIYSNLAWYQQKPGKAPKLLIFAIKRLQDGVPSRFSGSGSGTDFTLTISSLQPEDFATYYCLQGSKFPLTFGQGTKVEIKR | 74 | 290 | 20 | 18.5% | 29% | 8% | 1.47 µg/mL | 1050 MFI | 0.753 µg/mL | 1230 MFI
hCl1e (antibody, human IgG1, kappa, V domains shown, Humanized) VH: QVQLVQSGAEVKKPGASVKVSCKASGYTFTDYAMYWVRQAPGQRLEWMGWINTYTGKPTYAQKFQGRVTITRDTSASTAYMELSSLRSEDTAVYYCARAVFYGYTMDAWGQGTLVTVSS VL: DIQMTQSPSSLSASVGDRVTITCRASEDIYSNLAWYQQKPGKAPKLLIFSVKRLQDGVPSRFSGSGSGTDFTLTISSLQPEDFATYYCLQGSNFPLTFGQGTKVEIKR |  |  |  |  |  |  | 2.24 µg/mL | 1860 MFI | 0.558 µg/mL | 1940 MFI

The remaining lines, values ahead:

Ratio tumor/stomach (Average) (human CLDN18.2 [1]) | Ratio tumor/stomach (Mouse 1) (human CLDN18.2 [1]) | Ratio tumor/stomach (Mouse 2) (human CLDN18.2 [1]) | % of positive tumor cells (Average) (human CLDN18.2 [2]) | % of positive tumor cells (Mouse 1) (human CLDN18.2 [2]) | % of positive tumor cells (Mouse 2) (human CLDN18.2 [2]) | EC50 (human CLDN18.2 [3]) | Max MFI (human CLDN18.2 [3]) | EC50 (human CLDN18.2 [4]) | Max MFI (human CLDN18.2 [4]) | Binder
74.3 | 92.5 | 50 | 26% | 37% | 15% |  |  |  |  | cCl1-1 (antibody, V domains shown, Chimeric antibody from a rat hybridoma; not built in; also called chimeric cCl1-1 antibody) VH: QIQLVQSGPELKKPGESVKISCKASGYTFTDYAMHWVKQAPGKGLKWMGWINTYTGKPTYADDFKGRFVFSLEASASTANLQISNLKNEDTATYFCARAVFYGYTMDAWGQGTSVTVSS VL: DIQMTQSPASLSASLGETISIACRASEDIYSNLAWYQQKSGKSPQLLIFSVKRLQDGVPSRFSGSGSGTQYSLKISGMQPEDEGDYFCLQGSNFPLTFGSGTKLEIK
 |  |  |  |  |  | 1.16 µg/mL | 1700 MFI | 0.408 µg/mL | 1850 MFI | hCl1j (antibody, human IgG1, kappa, V domains shown, Humanized) VH: QVQLVQSGAEVKKPGASVKVSCKASGYTFTDYAMYWVRQAPGQRLEWMGWINAYTGKPTYAQKFQGRVTITRDTSASTAYMELSSLRSEDTAVYYCARAVYYGYTMDAWGQGTLVTVSS VL: DIQMTQSPSSLSASVGDRVTITCRTSEDIYSNLAWYQQKPGKAPKLLIFAIKRLQDGVPSRFSGSGSGTDFTLTISSLQPEDFATYYCLQGSKFPLTFGQGTKVEIKR
329 | 800 | 140 | 23% | 32% | 14% | 2.14 µg/mL | 1600 MFI | 0.795 µg/mL | 1720 MFI | hCl1f (antibody, human IgG1, kappa, V domains shown, Humanized) VH: QVQLVQSGAEVKKPGASVKVSCKASGYTFTDYAMHWVRQAPGQRLEWMGWINAYTGKPTYAQKFQGRVTITRDTSASTAYMELSSLRSEDTAVYYCARAVFYGYTMDAWGQGTLVTVSS VL: DIQMTQSPSSLSASVGDRVTITCRASEDIYSNLAWYQQKPGKAPKLLIYSVKRLQDGVPSRFSGSGSGTDFTLTISSLQPEDFATYYCLQGSNFPLTFGQGTKVEIKR
 |  |  |  |  |  | 1.77 µg/mL | 1250 MFI | 0.678 µg/mL | 1440 MFI | hCl1g (antibody, human IgG1, kappa, V domains shown, Humanized) VH: QVQLVQSGAEVKKPGASVKVSCKASGYTFTDYAMHWVRQAPGQRLEWMGWINAYTGKPTYAQKFQGRVTITRDTSASTAYMELSSLRSEDTAVYYCARAVFYGYTMDAWGQGTLVTVSS VL: DIQMTQSPSSLSASVGDRVTITCRTSEDIYSNFAWYQQKPGKAPKLLIYSVNRLQDGVPSRFSGSGSGTDFTLTISSLQPEDFATYYCLQGSKFPLTFGQGTKVEIKR
 |  |  |  |  |  | 1.93 µg/mL | 1530 MFI | 0.541 µg/mL | 1640 MFI | hCl1d (antibody, human IgG1, kappa, V domains shown, Humanized) VH: QVQLVQSGAEVKKPGASVKVSCKASGYTFTDYAMHWVRQAPGQRLEWMGWINTYTGKPTYSQKFQGRVTITRDTSASTAYMELSSLRSEDTAVYYCARAVFYGYTMDAWGQGTLVTVSS VL: DIQMTQSPSSLSASVGDRVTITCRTSEDIYSNFAWYQQKPGKAPKLLIYSVNRLQDGVPSRFSGSGSGTDFTLTISSLQPEDFATYYCLQGSKFPLTFGQGTKVEIKR
